Peptide text beside a SMILES is read from it. * marks the point of attachment. Cbz = O=C(OCc1ccccc1)*; CH2F = FC*
T1: ICE LAP-6 (Homo sapiens, UniProt P55211, A28V/A96G/Q221R)
T1 construct: transiently transfected with an expression vector encoding the full-length ICE LAP-6 protein (ICE LAP-6-flag); expressed in transfected cells; host or cells: MCF7 breast carcinoma cells, pcDNA3 vector
T1 sequence (P55211 1-416 A28V/A96G/Q221R): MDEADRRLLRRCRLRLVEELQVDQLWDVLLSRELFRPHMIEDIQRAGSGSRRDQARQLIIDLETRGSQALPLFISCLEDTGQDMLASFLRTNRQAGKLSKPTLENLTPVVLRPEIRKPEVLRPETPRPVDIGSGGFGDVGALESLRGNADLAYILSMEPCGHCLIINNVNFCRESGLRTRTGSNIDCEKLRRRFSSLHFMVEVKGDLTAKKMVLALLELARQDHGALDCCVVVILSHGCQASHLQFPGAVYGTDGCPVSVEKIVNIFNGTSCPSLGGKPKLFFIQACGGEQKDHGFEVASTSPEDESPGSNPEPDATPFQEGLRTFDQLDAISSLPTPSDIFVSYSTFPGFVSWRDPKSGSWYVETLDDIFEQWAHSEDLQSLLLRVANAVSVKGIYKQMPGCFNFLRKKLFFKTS

T2: pro-ICE LAP-6 (Homo sapiens, UniProt P55211, A28V/A96G/Q221R)
T2 construct: made in house; host or cells: cell-free in vitro transcription/translation, TNT kit (Promega)
T2 sequence (P55211 1-416 A28V/A96G/Q221R): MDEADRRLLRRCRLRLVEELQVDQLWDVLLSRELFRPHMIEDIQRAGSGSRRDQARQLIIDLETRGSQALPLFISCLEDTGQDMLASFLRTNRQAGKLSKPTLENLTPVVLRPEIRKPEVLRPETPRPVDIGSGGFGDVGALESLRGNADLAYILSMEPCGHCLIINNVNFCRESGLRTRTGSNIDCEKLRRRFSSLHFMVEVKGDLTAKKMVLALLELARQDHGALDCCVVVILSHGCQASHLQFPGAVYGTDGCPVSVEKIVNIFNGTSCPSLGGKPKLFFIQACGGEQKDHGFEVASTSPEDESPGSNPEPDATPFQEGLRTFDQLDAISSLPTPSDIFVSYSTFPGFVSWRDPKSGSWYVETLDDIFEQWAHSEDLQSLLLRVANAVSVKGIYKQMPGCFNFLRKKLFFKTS

T3: pro-Yama (Homo sapiens, UniProt P42574)
T3 construct: His6; made in house; host or cells: cell-free in vitro transcription/translation, TNT kit (Promega)
T3 sequence (P42574 1-277): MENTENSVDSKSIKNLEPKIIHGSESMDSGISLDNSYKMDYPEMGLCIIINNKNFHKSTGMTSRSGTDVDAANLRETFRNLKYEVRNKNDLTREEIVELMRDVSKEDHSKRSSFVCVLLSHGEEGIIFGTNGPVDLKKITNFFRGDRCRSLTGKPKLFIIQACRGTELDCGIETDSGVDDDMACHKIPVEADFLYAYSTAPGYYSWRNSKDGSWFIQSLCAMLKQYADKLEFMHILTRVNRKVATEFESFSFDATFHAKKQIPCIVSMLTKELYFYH

B1: ICE LAP-6 mt: mutant version of ICE LAP-6 with the catalytic cysteine residue (Cys286) altered to an alanine (protein, UniProt P55211 1-416, looked up, variant C287A)
chain: MDEADRRLLRRCRLRLVEELQVDQLWDALLSRELFRPHMIEDIQRAGSGSRRDQARQLIIDLETRGSQALPLFISCLEDTGQDMLASFLRTNRQAAKLSKPTLENLTPVVLRPEIRKPEVLRPETPRPVDIGSGGFGDVGALESLRGNADLAYILSMEPCGHCLIINNVNFCRESGLRTRTGSNIDCEKLRRRFSSLHFMVEVKGDLTAKKMVLALLELAQQDHGALDCCVVVILSHGCQASHLQFPGAVYGTDGCPVSVEKIVNIFNGTSCPSLGGKPKLFFIQAAGGEQKDHGFEVASTSPEDESPGSNPEPDATPFQEGLRTFDQLDAISSLPTPSDIFVSYSTFPGFVSWRDPKSGSWYVETLDDIFEQWAHSEDLQSLLLRVANAVSVKGIYKQMPGCFNFLRKKLFFKTS
B2: ICE LAP-6: novel human member of the ICE/ced-3 family of cysteine proteases, active site QACGG, predicted 45.8 kD (protein)
chain: MDEADRRLLRRCRLRLVEELQVDQLWDVLLSRELFRPHMIEDIQRAGSGSRRDQARQLIIDLETRGSQALPLFISCLEDTGQDMLASFLRTNRQAGKLSKPTLENLTPVVLRPEIRKPEVLRPETPRPVDIGSGGFGDVGALESLRGNADLAYILSMEPCGHCLIINNVNFCRESGLRTRTGSNIDCEKLRRRFSSLHFMVEVKGDLTAKKMVLALLELARQDHGALDCCVVVILSHGCQASHLQFPGAVYGTDGCPVSVEKIVNIFNGTSCPSLGGKPKLFFIQACGGEQKDHGFEVASTSPEDESPGSNPEPDATPFQEGLRTFDQLDAISSLPTPSDIFVSYSTFPGFVSWRDPKSGSWYVETLDDIFEQWAHSEDLQSLLLRVANAVSVKGIYKQMPGCFNFLRKKLFFKTSHHHHHH
B3: Yama: ICE/Ced-3 family cysteine protease; p17 and p12 subunits derived from a 32 kDa proenzyme (protein)
chain: MENTENSVDSKSIKNLEPKIIHGSESMDSGISLDNSYKMDYPEMGLCIIINNKNFHKSTGMTSRSGTDVDAANLRETFRNLKYEVRNKNDLTREEIVELMRDVSKEDHSKRSSFVCVLLSHGEEGIIFGTNGPVDLKKITNFFRGDRCRSLTGKPKLFIIQACRGTELDCGIETDSGVDDDMACHKIPVEADFLYAYSTAPGYYSWRNSKDGSWFIQSLCAMLKQYADKLEFMHILTRVNRKVATEFESFSFDATFHAKKQIPCIVSMLTKELYFYHHHHHHH

Legend:
ICE LAP-6 = target: T1, ICE LAP-6; assay: Inhibition of ICE LAP-6 induced apoptosis in transfected MCF7 cells; type: cell-based; conditions: MCF7 cells transfected with ICE LAP-6-flag
Method: (§1) MCF7 breast carcinoma cells were transiently transfected as described previously (Chinnaiyan, A. M., et al (1995) Cell 81, 505–512). Briefly, 2.5×10^5 MCF7 cells were transfected with 0.25 μg of the reporter plasmid pCMV β-galactosidase plus 1 μg of test plasmid in 6-well tissue culture dishes using lipofectamine as per manufacturer's instructions. The transfection was carried out in 1 ml of Opti-MEM Minimal Media (GMBCO-BRL) and after 5 hours, 1 ml of serum-containing growth media was added. Two days later, the cells were fixed with 0.5% glutaraldehyde and stained with X-gal for 4 hours. Cells were visualized by phase-contrast microscopy. At least 300 β-galactosidase-positive cells were counted for each transfection (n=3) and identified as apoptotic or nonapoptotic based on morphological alterations typical of adherent cells undergoing apoptosis including becoming rounded, condensed, and detaching from the dish (Cohen, J. J. (1993) Immunology Today 14, 126–130). […] Samples were analyzed by immunoblotting with anti-PARP monoclonal antibody C-2-10 as described previously Tewari, M., et al. (1995) Cell 81, 801–809).
(§2) To study the functional role of ICE LAP-6, MCF7 breast carcinoma cells were transiently transfected with an expression vector encoding the full-length ICE LAP-6 protein (ICE LAP-6-flag) and subsequently assessed for apoptotic features. […]

pro-ICE LAP-6 = target: T2, pro-ICE LAP-6; assay: Proteolytic activation of in vitro-translated pro-ICE LAP-6 by granzyme B; type: biochemical; conditions: 20 pmole granzyme B, 4 hours at 37° C., SDS-PAGE
pro-Yama = target: T3, pro-Yama; assay: Proteolytic activation of in vitro-translated pro-Yama by granzyme B; type: biochemical; conditions: purified granzyme B
[1] = system: MCF7 breast carcinoma cells; assay: Apoptosis assay in transiently transfected MCF7 cells; type: cell-based; conditions: transient transfection of expression vector, morphology of β-galactosidase-positive cells, two days
Method: as §1, §2

PARP = PARP cleavage by granzyme B-processed protease (anti-PARP immunoblot); type: biochemical; conditions: after granzyme B processing, anti-GraB added, 2 hours, 37° C.
Method: as §1, with “801–809). […]” for “801–809).”

Molecule | induction of apoptosis / cell death on overexpression [1] | ability to cleave PARP (PARP) | further results
COC(=O)C[C@H](NC(=O)[C@H](C)NC(=O)[C@@H](NC(=O)OCc1ccccc1)C(C)C)C(=O)CF [z-VAD fmk] (Cbz-Val-Ala-Asp(OMe)-CH2F) |  |  | inhibition of ICE LAP-6 induced apoptosis (ICE LAP-6): inhibited
granzyme B: secreted serine protease, effector of cytotoxic T cell-mediated apoptosis |  |  | proteolytic processing of pro-ICE LAP-6 (pro-ICE LAP-6): proteolytically processed into 3 fragments; activation of Yama in vitro (pro-Yama): directly activates
B1 | did not induce apoptotic changes |  | 
B2 | caused cell death | active | 
B3 |  | active | 

— US7115260B2, “Interleukin-1β converting enzyme like apoptotic protease-6” (Human Genome Sciences, Inc., priority 1996, dated 2006)
